Data on one molecule can be found in article PMC10830416.

This series addresses LINE-1 ORF2p (L1 ORF2p), wild type (Homo sapiens, UniProt O00370 1-1275). As to the kind of experiment: cryo-EM structure (3.2 A); dTTP bound as incoming nucleotide; dTTP, dATP, ddGTP 1 mM each; 10 mM MgCl2; BS3 cross-linked; Cryo-EM: 600 nm ORF2p, RNA-DNA duplex 2:1 over protein, 30 mM K-HEPES pH 7.9, 150 mM KCl, 10 mM MgCl2, 5 mM EGTA, 1 mM DTT, 37 C 30 s, then 4 mM BS3 on ice 5 mi.

Sequence of LINE-1 ORF2p (L1 ORF2p), wild type (O00370 whole entry): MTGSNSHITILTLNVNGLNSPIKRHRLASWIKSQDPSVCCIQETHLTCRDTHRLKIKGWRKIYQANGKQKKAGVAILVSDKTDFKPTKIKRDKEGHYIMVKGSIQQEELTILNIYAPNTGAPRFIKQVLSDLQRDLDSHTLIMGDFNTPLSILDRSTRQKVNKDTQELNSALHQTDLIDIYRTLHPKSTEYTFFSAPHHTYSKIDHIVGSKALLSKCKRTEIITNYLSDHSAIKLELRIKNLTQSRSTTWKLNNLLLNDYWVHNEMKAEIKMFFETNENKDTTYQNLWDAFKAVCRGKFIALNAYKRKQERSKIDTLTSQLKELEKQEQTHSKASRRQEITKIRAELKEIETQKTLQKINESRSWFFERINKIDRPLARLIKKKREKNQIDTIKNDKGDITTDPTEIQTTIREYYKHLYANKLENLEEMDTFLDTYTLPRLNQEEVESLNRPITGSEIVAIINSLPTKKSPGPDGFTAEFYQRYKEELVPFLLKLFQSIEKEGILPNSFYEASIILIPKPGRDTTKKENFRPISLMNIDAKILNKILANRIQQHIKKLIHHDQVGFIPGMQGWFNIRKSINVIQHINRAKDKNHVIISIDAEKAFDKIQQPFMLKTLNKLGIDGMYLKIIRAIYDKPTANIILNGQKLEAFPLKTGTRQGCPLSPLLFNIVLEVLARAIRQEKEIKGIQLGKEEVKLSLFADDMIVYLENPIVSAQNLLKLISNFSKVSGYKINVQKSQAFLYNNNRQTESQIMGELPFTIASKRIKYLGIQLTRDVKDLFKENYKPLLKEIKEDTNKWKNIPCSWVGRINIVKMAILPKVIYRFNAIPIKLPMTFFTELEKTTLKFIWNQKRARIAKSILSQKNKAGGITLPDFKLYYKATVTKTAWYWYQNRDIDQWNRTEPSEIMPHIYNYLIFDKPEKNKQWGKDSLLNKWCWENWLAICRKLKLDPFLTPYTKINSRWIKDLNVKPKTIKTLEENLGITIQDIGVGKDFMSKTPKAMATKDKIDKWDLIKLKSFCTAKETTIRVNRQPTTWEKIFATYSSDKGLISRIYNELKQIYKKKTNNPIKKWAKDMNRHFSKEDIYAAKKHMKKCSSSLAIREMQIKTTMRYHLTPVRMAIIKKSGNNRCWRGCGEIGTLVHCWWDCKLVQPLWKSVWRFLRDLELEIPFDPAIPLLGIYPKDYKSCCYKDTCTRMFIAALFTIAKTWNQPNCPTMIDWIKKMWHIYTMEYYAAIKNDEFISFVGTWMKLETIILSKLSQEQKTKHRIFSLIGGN

B1: Synthetic template RNA (74 nt) with 8 nt DNA primer extended to 13 nt, ending in ddG (mixed)
RNA: GCAGACUGCGUAGGCGUGCAGGAACCUGCACGCCUACGCAGUCUGCAAAAAAAAAAAAAAACAAUAUCGGCGCG
DNA: CGCGCCGATATTG
modifications: 3' dideoxyguanosine on the cDNA strand
On to B1, for which the binding result was “binds”.
